Assay results as given in article PMC11993684, “Fibromodulin selectively accelerates myofibroblast apoptosis in cutaneous wounds by enhancing interleukin 1β signaling” (Nature Communications, 2025).

B1: recombinant IL1R1 (R&D Systems 269-1R-100/CF) (receptor, human, UniProt P14778 18-336, looked up)
chain: LEADKCKEREEKIILVSSANEIDVRPCPLNPNEHKGTITWYKDDSKTPVSTEQASRIHQHKEKLWFVPAKVEDSGHYYCVVRNSSYCLRIKISAKFVENEPNLCYNAQAIFKQKLPVAGDGGLVCPYMEFFKNENNELPKLQWYKDCKPLLLDNIHFSGVKDRLIVMNVAEKHRGNYTCHASYTYLGKQYPITRVIEFITLEENKPTRPVIVSPANETMEVDLGSQIQLICNVTGQLSDIAYWKWNGSVIDEDDPVLGEDYYSVENPANKRRSTLITVLNISEIESRFYKHPFTCFAKNTHGIDAAYIQLIYPVTNFQK
notes: interleukin 1 receptor type 1, recombinant, His-tag-free, 55 kDa on SDS-PAGE, carrier-free; also called interleukin 1 receptor type 1; source: bought: R&D Systems (carrier-free)
B2: recombinant human fibromodulin (FMOD) with C-terminal His-tag (natural protein, UniProt Q06828 19-376, looked up)
chain: QYEDDPHWWFHYLRSQQSTYYDPYDPYPYETYEPYPYGVDEGPAYTYGSPSPPDPRDCPQECDCPPNFPTAMYCDNRNLKYLPFVPSRMKYVYFQNNQITSIQEGVFDNATGLLWIALHGNQITSDKVGRKVFSKLRHLERLYLDHNNLTRMPGPLPRSLRELHLDHNQISRVPNNALEGLENLTALYLQHNEIQEVGSSMRGLRSLILLDLSYNHLRKVPDGLPSALEQLYMEHNNVYTVPDSYFRGAPKLLYVRLSHNSLTNNGLASNTFNSSSLLELDLSYNQLQKIPPVNTNLENLYLQGNRINEFSISSFCTVVDVVNFSKLQVLRLDGNEIKRSAMPADAPLCLRLASLIEI
notes: fibromodulin, human; cDNA of a human FMOD transcript (NM_002023) subcloned into pSecTag2A; secreted into the culture supernatant of CHO-K1 cells; Proteoglycan made in CHO cells; also called His-tagged FMOD; not shown: His-tag, C-terminal, kept

Columns and labels:
[1] = target: T1, recombinant human fibromodulin (FMOD) with C-terminal His-tag (human, UniProt Q06828 19-376); experiment: SPR
T1 chain: B2 chain

[2] = target: B2; experiment: SPR; Biacore 3000; FMOD immobilised on CM5 chip by amine coupling; IL1R1 or IL1RAP in HBS-EP pH 7.4 (0.15 M NaCl, 10 mM HEPES, 3 mM EDTA, 0.005% polysorbate 20), 50 μL/minute; double referencing; Scrubber 2.0; conditions: both partners purified
[3] = target: T2, IL1β-IL1R1-IL1RAP ternary complex formed in vitro from recombinant proteins (human, UniProt P01584 117-269; P14778 18-336; Q9NPH3 21-367); experiment: pull-down; Pierce His Protein Interaction Pull-Down Kit; 150 μg His-tagged FMOD immobilised as bait; His-tag-free 100 μg IL1β, 100 μg IL1R1, 100 μg IL1RAP, or the complex formed beforehand (100 μg IL1β, 50 μg IL1R1, 50 μg IL1RAP, 4 °C overnight) as prey; eluate by SDS-PAGE and Western blotting; conditions: both partners purified
T2 construct: interleukin 1 beta, human, recombinant, His-tag-free, 17 kDa on SDS-PAGE; as m2; interleukin 1 receptor type 1, recombinant, His-tag-free, 55 kDa on SDS-PAGE; as m3; interleukin 1 receptor accessory protein, recombinant, His-tag-free, 70-75 kDa on SDS-PAGE; as m4; See the notes of m3 and m4 on the bought constructs; also called IL1β-IL1R1-IL1RAP complex; IL1β-IL1R1-ILRAP ternary complex; source: …

Binder	koff [1] [s⁻¹]	Kd [2] [nM]	binding result [3]
B1	0.02	430	
B2			binds
